Experiment: soluble fraction after stress (log2 fold change); higher = more stays soluble; pooled small domains, quantitative proteomics
Settings: stress: 50 degC
Method in brief: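 Custom libraries of small protein domains were pooled and measured in a high-throughput format, with quantitative proteomics as the read-out. Each library was stressed at 50°C. The value is the log2 fold change in the amount of each protein that stays soluble after stress, used as a measure of aggregation propensity; higher values mean more of the protein stays soluble.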

Sequence	soluble fraction (log2)
HMKNLTERQQRIIALISENPQTTRAEIAGAIGVATKTIERELTTLSNIVYYVGPKKGGHWEIIK	-0.865
HMKSIRIPFILTEGPNSQKITIDIDSDEEFRIGDVFDEDDKLWSINQILISGDRKAKMAIASEVTSISALR	-2.39
HMTEELLNQRKETMLALLNDPTYVPMKLKELAMLLNLSRDQRDELREVMESLEQDGKVILTKRGKYKIP	-0.269
HMDVIGLEAAKSAAVKDAGISSPTFTKATLDRDDGRSLYEIEFISGSTKYEYDIDALTGSVLSKKTRALS	-0.112
HMLTTMSSQWKPSLDAIEILEKSGIAYSFIEDAIPEFVLYWRERGISHGAWNTKFVEHIRKQWAKFEAS	-1.35
HMKIGIYPGTFDPITHGHTDIIRRSLRVFDKVVVAVAPNPSKHPLFTLTERLEMIRIVMKELEHVEVT	0.0231
HMSVEVADITRAYYEGVGFEWWIRSVRLDPNELIVDNDDEGKLYRVPFEINGEEVTFGDPVEVKIRYE	-0.541
HMSMHVHTPNPDFKPSNTNALQEGQLVEHPKFGFGKVQKIETEGLNKKASIQFEHFGEKTLLLSFAKLRII	0.0178
HMALPEHIEPFLRGLGQALAEGDSYEDVQERLLRAYPYLDSTEFQTALARVIFISDLWGRLN	-1.55
HMSKLQKTKYAGVYFTEDTQTRVKTYVARIVLAGIIDTEVVVGHSNDQHRTNAAIAYQRRLELIQEAKN	-3.86
HMDRKFFFNEQYEDYINSDLKVKFMNDSGSKKSFQGELTKVTPSDLFLESEKESVKVPFSSIIQANLI	-0.147
HMLTWNQLGLITKPVVFLDGTGYYARLFEAFEHMISTGFVKENYRAMMNRATSVEEAVRIASSPAPKVD	-0.0676
HMEDNLMIVVQVNGKKRSEIKVSIDASEDQIKQTALAEPNVQKFVEGHTIRKMILVPSKLLNIVV	-0.0375
HMSKQLGFKIKTARRKLNISQGDLSKKLEISPSYLNLIESGKRKVSTDLLMKASEILNLDLKKL	-0.281
HMKFPIITAKQDSDGKFYWAQTTDKGKTYTFILDGDGKKFPIGGTMPDVKINENGYWSVNGSSTGVLANDL	0.0311
HMRQLISIYNNTIGADEIDQMRNILSNSGYKEGVDFAVQTADKKSVILVRRDLAGMIQEQLSGEGLPS	0.0201
HMPTMEQTYIGRTMIAEEDMGKNSKIKVSGIYWTAYNKGRVIKKGEEYKITGIEGNKLIVSSK	-0.0359
HMFTGELESRVFELNYVDGLVASAALAGVLTDKGSATPIASRAGGENDMLLVVDRIASYSQIEKIITQLD	-0.0977
HMAPAPYLVKVTANKLNIRSGPGTNYKIQGAITDKGTYTIVDTQGRWGKLKSGAGWIYLNYTKK	-1.9

Sequence	soluble fraction (log2)
HMGNEVMYRQDLSEQELLSFIKKYTGQDEVTHIVVGAPKQRDNTPSPVETKITPFVVQLKAQFPDVNVV	0.115
HMLSLKAQVYEIIRQKILQQEYALGEKINIDTVADELKISNSPIREALMMLSQDGLIEMVPNNGARVI	-0.772
HMYDKKVFRLLFILNQLDSRKKVSTGELAKEFNVSPRTVQRDIVLLNTTGFPIISLEKGYHSFMEGFSLK	-1.12
HMGKPTPASQVATRWLAGDLPETLPVAGPAPSFETLARSVSTDFHPRAVLQELLRLGVAEEADGRVRLLK	0.00959
HMQYFDIETEIQKFIKSENNLSDFDKETLQSFLYQLSKGSPEENTAKKVVDILNKFLPLTTAIINMIKALT	0.168
HMSDPVKQVAMRILDLREISDYTVDKMAEVLNVPVEEYRKYESGEVDMPISFLVKIGEVFHVDMTELLTG	-0.219
HMNKLSISALAETVSTKRKEKSMTQQDLSDATGINRALISRLEQKDFIPSIPQLEKLEEILGFELEEVF	-0.0428
HMDRVDGWLHDGKLYLRVVDYKTGKKSFDLAELRYGLGLQMLLYLFTLKEEGQMLFGGHEIVPAGVL	-0.391
HMDPPVDLTPREQQVLSRIALGMSDKAIAAELGVSHQTVRNHVARIYAKIKVHSRSQAIVWAREKGIP	-0.185
HMRPLTPLEKLTPDADGKYYHIVQSGETLSWIAKLYETTAEKLQAWNNLFSSDIFPNQKLLLQVTPP	0.0722
HMELARLRPELDGNDIMRILGVPPGPVVGRAYTYLLELRINQGELGRERVTQLLLDWAAAEGISA	-2.02
HMFSVVDKITLQEELKKLSKKEQLLIQLRYYDELNQEEIAKIFHVSQVQISRMEKKIIEKLKKQF	-3.58
HMDKPIVFLEDTKAHKSSDLQSPVYMTVPKGTIAFVIAEKGDWSQVYAGRVLDRNLASQWVRRGFS	0.227
HMSFTSQSVLIEIVRGTTQLTPLAAAVGANKREVVLAVHRLKQRGLVVSAGLGQYAATEAGRAFLTAGREV	-2.76
HMTMTIEITVNGKTKTLVAELSLADLLRDLGMTKGRIAVELNGHIVPRSQFSSKTISNLDSIEIVQ	-3.23
HMPTELVYTVPASAEGLRLDHFLVQHVPHMTRALATELTGAGGVRVNGRRAKKGDRLPSGAEVRLER	0.178
HMTTTFGWENLVGEKGIAATDLHPSGWVTVKDQRVFVVSEGTFIEEGKEVEIMNVDGNRIVVREFKN	0.0515
HMKSERHALILSLIEKKNVETQEDLAELLKERGVAVTQATVSRDIKELRLIKVLSETGGYKYATVDKAE	-0.103
HMKLFGTPGSPFARKVRIVLEEKRIPHEYIIERGSAPGSRVPQYNPLGKVPTLVLDDGRGLYDSPVIVEYL	-0.492
